Test [1] deals with DNase-I (UniProt P00639).
Test [2] deals with A230V human cardiac actin (A230V ACTC) (human). The experiment in a line: pyrene-actin polymerisation assay (critical concentration); actin in G-buffer mixed with 2.5% pyrene-labeled alpha-skeletal actin; polymerization buffer 25 mM Tris pH 8.0, 50 mM KCl, 1 mM EGTA, 2 mM MgCl2, 0.1 mM ATP; Cc is the x-intercept of the change in pyrene fluorescence against actin concentration; monomer to filament.

Test [3] has as its target A331P human cardiac actin (A331P ACTC) (human). Described as above.
Test [4] has as its target E99K human cardiac actin (E99K ACTC) (human). Described as above.
Test [5] has as its target E361G human cardiac actin (E361G ACTC) (human). Described as above.
The target of test [6] is M305L human cardiac actin (M305L ACTC) (human). Described as above.
In test [7] the target is R312H human cardiac actin (R312H ACTC) (human). The test is described as above.
Test [8] addresses Y166C human cardiac actin (Y166C ACTC) (human). The description is as above.
Test [9] deals with wildtype human cardiac actin (WT ACTC) (human) (UniProt P68032). Described as above.

DNase-I, sequence (P00639 23-282): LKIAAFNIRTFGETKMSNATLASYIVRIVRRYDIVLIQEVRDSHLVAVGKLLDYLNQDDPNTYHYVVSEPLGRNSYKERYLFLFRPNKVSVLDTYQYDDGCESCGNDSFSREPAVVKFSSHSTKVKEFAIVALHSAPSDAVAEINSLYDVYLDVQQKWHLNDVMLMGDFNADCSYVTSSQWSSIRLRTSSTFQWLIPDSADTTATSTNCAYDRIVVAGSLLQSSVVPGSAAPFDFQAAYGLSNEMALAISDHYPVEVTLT

Substance “A230V human cardiac actin (A230V ACTC) (natural protein)” returned an IC50 of inhibition of DNase-I activity (A260 with salmon sperm DNA; 0 to 100 nM ACTC, 15.4 nM DNase-I) in test [1] of 15.3 nM. In [2], this substance came in with a Cc (critical concentration of polymerisation) of 2.11 µM.

For the substance “A331P human cardiac actin (A331P ACTC) (natural protein)”, the IC50 of inhibition of DNase-I activity (A260 with salmon sperm DNA; 0 to 100 nM ACTC, 15.4 nM DNase-I) in test [1] is 26 nM. The substance also registered a Cc (critical concentration of polymerisation) in test [3] of 2.95 µM.

For “E99K human cardiac actin (E99K ACTC) (natural protein)”, in [1], the IC50 of inhibition of DNase-I activity (A260 with salmon sperm DNA; 0 to 100 nM ACTC, 15.4 nM DNase-I) is 25.7 nM. In test [4], this substance came in with a Cc (critical concentration of polymerisation) of 1.67 µM.

In test [1], “E361G human cardiac actin (E361G ACTC) (natural protein)” registered an IC50 of inhibition of DNase-I activity (A260 with salmon sperm DNA; 0 to 100 nM ACTC, 15.4 nM DNase-I) of 16.8 nM. Moreover, in [5], the Cc (critical concentration of polymerisation) came to 0.58 µM.

With “M305L human cardiac actin (M305L ACTC) (natural protein)”, the IC50 of inhibition of DNase-I activity (A260 with salmon sperm DNA; 0 to 100 nM ACTC, 15.4 nM DNase-I) in test [1] turned out to be 17 nM. This substance also gave a Cc (critical concentration of polymerisation) in test [6] of 2.21 µM.

For the substance “R312H human cardiac actin (R312H ACTC) (natural protein)”, the IC50 of inhibition of DNase-I activity (A260 with salmon sperm DNA; 0 to 100 nM ACTC, 15.4 nM DNase-I); the value rose on later days after purification in [1] stood at 36.7 nM. In test [7], this substance had a Cc (critical concentration of polymerisation) of 4.75 µM.

With “Y166C human cardiac actin (Y166C ACTC) (natural protein)”, the IC50 of inhibition of DNase-I activity (A260 with salmon sperm DNA; 0 to 100 nM ACTC, 15.4 nM DNase-I) in test [1] is 24.6 nM. Also, the Cc (critical concentration of polymerisation) in test [8] was determined as 2.67 µM.

Regarding “wildtype human cardiac actin (WT ACTC) (from UniProt P68032 1-377) (natural protein)”, the IC50 of inhibition of DNase-I activity (A260 with salmon sperm DNA; 0 to 100 nM ACTC, 15.4 nM DNase-I) in test [1] is 13.2 nM. Moreover, the Cc (critical concentration of polymerisation) in [9] worked out at 0.28 µM.

These data come from PMC3348139.
